Experimental data taken from patent US20240294931A1 (VIB VZW, published 2024).

Assays:
[1] = target: T1, Arabidopsis thaliana PHYTOCHROME A SIGNAL TRANSDUCTION1 (Arabidopsis thaliana, UniProt Q9LDL7 1-490); test: yeast two-hybrid
T1 construct: 490 aa; Y2H fusion domains not described; also called PAT1; At5g48150
T1 sequence: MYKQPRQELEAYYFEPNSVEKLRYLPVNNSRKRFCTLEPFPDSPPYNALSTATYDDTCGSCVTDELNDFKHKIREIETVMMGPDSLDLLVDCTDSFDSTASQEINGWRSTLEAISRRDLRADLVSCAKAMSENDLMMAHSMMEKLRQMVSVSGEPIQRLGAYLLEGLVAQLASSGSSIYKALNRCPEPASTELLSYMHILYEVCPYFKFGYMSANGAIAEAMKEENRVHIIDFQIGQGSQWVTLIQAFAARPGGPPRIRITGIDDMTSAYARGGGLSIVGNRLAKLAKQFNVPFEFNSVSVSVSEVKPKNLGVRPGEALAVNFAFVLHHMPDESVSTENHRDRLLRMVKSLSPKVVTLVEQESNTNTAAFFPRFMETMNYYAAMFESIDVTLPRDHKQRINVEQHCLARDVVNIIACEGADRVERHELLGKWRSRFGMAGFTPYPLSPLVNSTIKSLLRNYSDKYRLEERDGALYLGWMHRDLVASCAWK

[2] = target: T2, Arabidopsis thaliana SCARECROW-LIKE 21 (Arabidopsis thaliana, UniProt Q9S7H5 1-413); test: yeast two-hybrid with ERF115 fragments
T2 construct: Y2H fusion domains not described; Also the endogenous protein co-purifying in the ERF115 TAP; also called SCL21; AT2G04890
T2 sequence: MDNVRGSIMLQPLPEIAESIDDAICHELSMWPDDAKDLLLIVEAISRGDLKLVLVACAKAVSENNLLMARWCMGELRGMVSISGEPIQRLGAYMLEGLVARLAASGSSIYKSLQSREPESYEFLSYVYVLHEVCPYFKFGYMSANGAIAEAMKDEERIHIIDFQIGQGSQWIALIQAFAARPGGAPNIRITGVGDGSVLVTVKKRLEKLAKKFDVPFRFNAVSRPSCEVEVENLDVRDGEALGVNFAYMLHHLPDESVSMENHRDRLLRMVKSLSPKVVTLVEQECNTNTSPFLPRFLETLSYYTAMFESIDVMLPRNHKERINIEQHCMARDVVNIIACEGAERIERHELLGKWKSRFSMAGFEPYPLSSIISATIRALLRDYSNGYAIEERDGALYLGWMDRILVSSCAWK
Protocol: FIGS. 1A-1L. ERF115 interacts with SCL21 and PAT1. FIG. 1A, Protein interactions identified through TAP using ERF115 and SCL21 as bait. Arrowheads point towards co-purifying proteins. FIG. 1B, Yeast two-hybrid interaction of ERF115 full length and fragments with SCL21 and PAT1. Growth was verified on control medium (+HIS) or selective medium (−HIS) supplemented with 15 mM 3-Amino-1,2,4-triazole (3-AT), using β-glucuronidase (GUS) as a negative control. FIG. 1C, Yeast two-hybrid interaction of ERF2 and ERF6 without (−) or fused to the conserved ERF115 interaction motif (+) with SCL21. The assay was performed similar to (FIG. 1B). […], Root tips expressing ERF115 (dots) (FIGS. 1D and 1E), SCL21 (no expression visible) (FIGS. 1F and 1G), and PAT1 (dots) (FIGS. 1H And 1I) under control conditions (FIGS. 1D, 1F, and 1H) or treated with bleomycin (FIGS. 1E, 1G, and 1I). Arrowheads indicate the quiescent center (QC). Cell walls are counterstained with propidium iodide (PI). Bars=50 μm. FIGS. 1J-1L, Expression of PAT1 (green) and ERF115 (red) in root tips 10 h15 to 11 h30 after recovery from bleomycin treatment. […] Cell walls are counterstained (white) by SCRI Renaissance 2200 dye. Bars=25 μm.

binding result [1]: binds
binding result [2]: binds
B1: Arabidopsis thaliana ERF115 A-fragment (N-terminal sequence that precedes the APETALA2 domain) (other)
chain: MANSGNYGKRPFRGDESDEKKEADDDENIFPFFSARSQYDMRAMVSALTQVIGNQSSSHDNNQHQPVVYNQQDPNPPAPPTQDQGLLRK
notes: Y2H fusion domains not described
